Reference: article PMC3791464 (eLife, 2013)

B1: GFP–Orc6 wild type (fly transgene) [Drosophila melanogaster] / Drosophila Orc2, endogenous in fly ovaries [Drosophila (endogenous in fly ovaries)] (parent)
chain 1: MTTLIEQLITKMGLREEPNVLEKTTELVRLLELRSTNVPLQINEYGKIVLCADLASCMIGIAFDKEQALKLSGLRKSQYLNNKRMFEKLLDLNKLASVNDICVQLGLNEVARKAEELMTLFKGVAATEDMGTDTSHPQYATMAVFQACRLLKKKVSKSKLMPFSNLRPSQFQLLEQQWERMIAKHHKESKVPSSTDMEGKLKENQNENIKGHEAKKAHKPPPEDYEIWKARMLAKAQAKLKELEASQSHMDSQLLEA
chain 2: MSASNKGGYKTPRKENLMSIENLTNSEEESEDLNTAMVGNAVESQPKVTSRRSTRRPSPTKKYQAYQKESNGKGQEERIVVNYVEMSDERSSDAEDQEEEESIEESENAARPAAKDLHLIQSEYNVAGTSMFGFNTPKKRDAMALAALNATPCTPKTPKTPRLGVKTPDTKRKKSMDQPKTPAHVRTRVKKQIAKIVADSDEDFSGDESDFRPSDEESSSSSSSSDAGNSSDNDAADDEPKTPSRARRAIVVPVLPKTPSAARLRQSARAKKSNEFVPESDGYFHSHASSKILTSDHTLDRLKNPRLAADRVFSLLSEIKTSAEHEGSINAIMEEYRSYFPKWMCILNEGFNILLYGLGSKHQLLQSFHREVLHKQTVLVVNGFFPSLTIKDMLDSITSDILDAGISPANPHEAVDMIEEEFALIPETHLFLIVHNLDGAMLRNVKAQAILSRLARIPNIHLLASIDHINTPLLWDQGKLCSFNFSWWDCTTMLPYTNETAFENSLLVQNSGELALSSMRSVFSSLTTNSRGIYMLIVKYQLKNKGNATYQGMPFRDLYSSCREAFLVSSDLALRAQLTEFLDHKLVKSKRSVDGSEQLTIPIDGALLQQFLEEQEKK

Variants of: B1
Experiment: GFP fluorescence of anti-Orc2 immunoprecipitates
Settings: with Drosophila Orc2, endogenous in fly ovaries [Drosophila (endogenous in fly ovaries)]; fly ovary extracts; three independent experiments; read off a plot
With chain 1 MTTLIEQLITKMGLREEPNVLEKTTELVRLLELRSTNVPLQINEYGKIVLCADLASCMIGIAFDKEQALKLSGLRKSQYLNNKRMFEKLLDLNKLASVNDICVQLGLNEVARKAEELMTLFKGVAATEDMGTDTSHPQYATMAVFQACRLLKKKVSKSKLMPFSNLRPSQFQLLEQQWERMIAKHHKESKVPSSTDMEGKLKENQNENIKGHEAKKAHKPPPEAAEIWKARMLAKAQAKLKELEASQSHMDSQLLEA [chain 1 D224A Y225A] the response (arbitrary units) was 550.
chain 1 MTTLIEQLITKMGLREEPNVLEKTTELVRLLELRSTNVPLQINEYGKIVLCADLASCMIGIAFDKEQALKLSGLRKSQYLNNKRMFEKLLDLNKLASVNDICVQLGLNEVARKAEELMTLFKGVAATEDMGTDTSHPQYATMAVFQACRLLKKKVSKSKLMPFSNLRPSQFQLLEQQWERMIAKHHKESKVPSSTDMEGKLKENQNENIKGHEAKKAHKPPPEDYEIAAARMLAKAQAKLKELEASQSHMDSQLLEA [chain 1 W228A K229A] was tested, and the response (arbitrary units) was 470.
